In publication PMC11926245, “Structural recognition and stabilization of tyrosine hydroxylase by the J-domain protein DNAJC12” (Nature Communications, 2025):

Target: Tyrosine hydroxylase, wild-type (hTH1) (human) (UniProt P07101)
Experiment: BLI; biotinylated TH or TH variant immobilised on streptavidin sensors; DNAJC12 or variant 0.01-4 μM in solution; PBS, 0.02% Tween-20, 0.5 mg/mL BSA, 25 °C; responses fitted to a one-site hyperbola

Sequence of DNAJC12(1-107) (Q9UKB3 1-107): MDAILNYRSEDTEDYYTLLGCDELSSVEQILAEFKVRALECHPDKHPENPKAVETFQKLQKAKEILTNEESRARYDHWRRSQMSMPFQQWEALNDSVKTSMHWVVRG

DNAJC12(1-107) (from UniProt Q9UKB3-1 1-107) (domain or fragment)
Kd: 3.99 µM
